Reference: paper PMC4885022, “Structural Analysis of dsRNA Binding to Anti-viral Pattern Recognition Receptors LGP2 and MDA5” (Molecular Cell, 2016)

What was measured:
hLGP2 = target: T1, hLGP2 (Homo sapiens, UniProt Q96C10); test: malachite green ATPase assay; type: biochemical; details: dsRNA-dependent
T1 construct: gene DHX58; construct not described in main text
T1 sequence (Q96C10 1-678): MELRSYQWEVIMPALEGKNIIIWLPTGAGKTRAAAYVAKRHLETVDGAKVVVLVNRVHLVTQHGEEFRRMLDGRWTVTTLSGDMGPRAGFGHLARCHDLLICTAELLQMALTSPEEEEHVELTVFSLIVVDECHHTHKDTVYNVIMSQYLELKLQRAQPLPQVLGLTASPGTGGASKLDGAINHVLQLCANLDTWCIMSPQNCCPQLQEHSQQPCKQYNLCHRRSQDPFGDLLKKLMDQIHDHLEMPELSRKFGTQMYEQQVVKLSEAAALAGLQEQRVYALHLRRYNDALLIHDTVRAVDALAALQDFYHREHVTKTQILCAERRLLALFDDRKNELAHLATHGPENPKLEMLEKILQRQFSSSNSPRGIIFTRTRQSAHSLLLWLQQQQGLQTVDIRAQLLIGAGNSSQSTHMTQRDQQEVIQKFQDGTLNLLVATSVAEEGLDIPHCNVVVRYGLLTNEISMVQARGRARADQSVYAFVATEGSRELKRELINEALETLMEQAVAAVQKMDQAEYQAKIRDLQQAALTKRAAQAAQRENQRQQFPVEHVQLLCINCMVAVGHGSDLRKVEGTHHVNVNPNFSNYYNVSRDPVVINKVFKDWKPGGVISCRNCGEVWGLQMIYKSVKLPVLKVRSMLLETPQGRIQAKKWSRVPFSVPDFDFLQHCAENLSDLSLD

chLGP2 [1] = target: T2, chLGP2 (chicken, UniProt G0YYQ5 1-674); test: crystal structure; ADP:AlF4, Mg2+; Fluorescence anisotropy: 5'-FAM 12-mer annealed to unlabeled complement, protein titrated, ex 495 / em 515 nm, fit with Hill coefficient (n=1 for RIG-I); buffer, salt, pH and temperature not in the material; details: protein: recombinant, tags: SUMO fusion
T2 sequence: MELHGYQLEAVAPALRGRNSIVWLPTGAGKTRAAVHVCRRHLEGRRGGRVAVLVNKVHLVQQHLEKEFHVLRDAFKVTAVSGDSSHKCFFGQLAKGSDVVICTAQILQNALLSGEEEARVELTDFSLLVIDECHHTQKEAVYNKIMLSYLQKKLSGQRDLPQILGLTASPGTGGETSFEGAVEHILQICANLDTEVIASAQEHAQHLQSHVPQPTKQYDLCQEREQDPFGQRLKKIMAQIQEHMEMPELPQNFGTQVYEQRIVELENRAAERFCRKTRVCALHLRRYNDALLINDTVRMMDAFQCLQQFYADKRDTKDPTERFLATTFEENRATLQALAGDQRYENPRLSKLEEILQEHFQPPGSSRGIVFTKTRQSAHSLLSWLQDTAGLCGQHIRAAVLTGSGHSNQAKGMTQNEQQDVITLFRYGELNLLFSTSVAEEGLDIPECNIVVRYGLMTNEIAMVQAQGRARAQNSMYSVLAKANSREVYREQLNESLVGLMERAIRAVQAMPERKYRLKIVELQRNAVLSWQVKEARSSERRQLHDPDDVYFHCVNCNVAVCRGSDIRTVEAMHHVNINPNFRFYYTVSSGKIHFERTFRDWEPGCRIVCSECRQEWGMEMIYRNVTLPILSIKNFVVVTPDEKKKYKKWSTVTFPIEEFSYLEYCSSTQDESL

chLGP2 [2] = target: T2, chLGP2; test: fluorescence anisotropy; Fluorescence anisotropy: 5'-FAM 12-mer annealed to unlabeled complement, protein titrated, ex 495 / em 515 nm, fit with Hill coefficient (n=1 for RIG-I); buffer, salt, pH and temperature not in the material; details: protein: recombinant; tags: SUMO fusion; label: 5'-FAM on one strand; 5' overhang
hRIG-I = target: T3, hRIG-I (human, UniProt O95786 1-925); test: fluorescence anisotropy; ADP:AlF4; Fluorescence anisotropy: 5'-FAM 12-mer annealed to unlabeled complement, protein titrated, ex 495 / em 515 nm, fit with Hill coefficient (n=1 for RIG-I); buffer, salt, pH and temperature not in the material; details: protein: recombinant; label: 5'-FAM on one strand; blunt
T3 sequence: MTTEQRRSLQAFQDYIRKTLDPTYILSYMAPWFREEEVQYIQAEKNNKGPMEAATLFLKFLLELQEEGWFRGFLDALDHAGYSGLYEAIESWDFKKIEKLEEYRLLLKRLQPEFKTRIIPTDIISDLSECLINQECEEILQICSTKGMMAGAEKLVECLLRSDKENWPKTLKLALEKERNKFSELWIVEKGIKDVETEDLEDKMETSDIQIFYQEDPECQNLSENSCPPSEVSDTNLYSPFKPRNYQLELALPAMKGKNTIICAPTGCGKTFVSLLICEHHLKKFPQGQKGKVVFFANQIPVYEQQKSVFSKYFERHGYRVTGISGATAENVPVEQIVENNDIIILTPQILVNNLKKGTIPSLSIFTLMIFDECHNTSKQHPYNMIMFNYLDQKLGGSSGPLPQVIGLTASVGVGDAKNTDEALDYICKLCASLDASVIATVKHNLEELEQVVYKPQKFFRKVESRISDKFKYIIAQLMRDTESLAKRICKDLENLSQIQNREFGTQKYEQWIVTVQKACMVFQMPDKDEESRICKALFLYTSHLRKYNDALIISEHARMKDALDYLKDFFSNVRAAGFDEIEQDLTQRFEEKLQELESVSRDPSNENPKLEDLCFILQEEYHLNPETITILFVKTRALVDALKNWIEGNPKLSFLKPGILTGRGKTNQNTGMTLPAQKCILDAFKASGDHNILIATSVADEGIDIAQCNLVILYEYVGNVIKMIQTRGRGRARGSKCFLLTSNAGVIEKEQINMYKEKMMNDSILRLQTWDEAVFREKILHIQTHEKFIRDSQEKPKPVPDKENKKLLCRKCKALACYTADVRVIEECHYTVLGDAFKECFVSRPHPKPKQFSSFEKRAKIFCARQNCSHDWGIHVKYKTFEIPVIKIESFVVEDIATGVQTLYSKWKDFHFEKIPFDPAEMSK

chLGP2 [3] = target: T2, chLGP2; test: fluorescence anisotropy; same affinity as 5'OH; Fluorescence anisotropy: 5'-FAM 12-mer annealed to unlabeled complement, protein titrated, ex 495 / em 515 nm, fit with Hill coefficient (n=1 for RIG-I); buffer, salt, pH and temperature not in the material; details: protein: recombinant; tags: SUMO fusion; label: 5'-FAM on one strand; blunt
chLGP2 [4] = target: T2, chLGP2; test: crystal structure; no nucleotide; Fluorescence anisotropy: 5'-FAM 12-mer annealed to unlabeled complement, protein titrated, ex 495 / em 515 nm, fit with Hill coefficient (n=1 for RIG-I); buffer, salt, pH and temperature not in the material; details: protein: recombinant; tags: SUMO fusion; 2 copies of self-complementary strand
chLGP2 [5] = target: T2, chLGP2; test: fluorescence anisotropy; affinity independent of bound nucleotide; Fluorescence anisotropy: 5'-FAM 12-mer annealed to unlabeled complement, protein titrated, ex 495 / em 515 nm, fit with Hill coefficient (n=1 for RIG-I); buffer, salt, pH and temperature not in the material; details: protein: recombinant; tags: SUMO fusion; label: 5'-FAM on one strand; blunt
[6] = blunt, 2 copies of self-complementary strand

Nc1ncnc2c1ncn2[C@@H]1O[C@H](COP(=O)(O)OP(=O)(O)OP(=O)(O)O)[C@@H](O)[C@H]1O [ATP] was tested, and the “malachite green ATPase assay” value (hLGP2) was “both chLGP2 and hLGP2 ATPase activity is strictly dsRNA dependent”.

B1: 5'p 10-mer palindromic dsRNA (dsRNA)
RNA 1: GGUACGUACC
RNA 2: GGUACGUACC
modifications: 5' monophosphate
B1: binds (chLGP2 [1]; [6]).

B2: 5' overhang dsRNA (anisotropy) (dsRNA)
RNA 1: AACCGGUCACGC
RNA 2: AAGCGUGACCGG
In the case of B2, the binding signal (chLGP2 [2]) is reported as ~2 fold lower affinity than blunt end.

B3: 5'ppp 12-mer blunt dsRNA (anisotropy) (dsRNA)
RNA 1: GGGCUCCACAUG
RNA 2: CAUGUGGAGCCC
modifications: 5' triphosphate
In the case of B3, the Kd (hRIG-I) is reported as ~1 nM and the binding result (chLGP2 [3]) is reported as “binds”.

B4: 5'p 12-mer palindromic dsRNA (dsRNA)
RNA 1: GGUAGCGCUACC
RNA 2: GGUAGCGCUACC
modifications: 5' monophosphate
B4: binds (chLGP2 [4]).

B5: 5'OH 12-mer blunt dsRNA (anisotropy) (dsRNA)
RNA 1: GGGCUCCACAUG
RNA 2: CAUGUGGAGCCC
B5: binds (chLGP2 [5]).

GGAGCGUGCCGUACGGCACGCUCCGG (structured_RNA, 5' triphosphate) [5'ppp 26-mer hairpin with 3' GG overhang]: binds (chLGP2 [1]; hairpin, 3' overhang 2 nt (GG)).

B6: 5'ppp 10-mer palindromic dsRNA (dsRNA)
RNA 1: GGUACGUACC
RNA 2: GGUACGUACC
modifications: 5' triphosphate
B6: binds (chLGP2 [1]; [6]).
